In general, Kd refers to the equilibrium constant for the complex coming apart. A lower Kd goes with tighter binding.

The target in the test is (pY1-CTD)2, FAM-labelled tyrosine-phosphorylated CTD diheptad. As to the kind of experiment: fluorescence polarisation. On the technique in general: In fluorescence polarisation assays a small probe gives low polarisation when free and higher when bound to something large.

Take “Spt6-tSH2 R1281E/S1284A/R1285E (from UniProt Q6FLB1 1250-1444) (domain or fragment)”: the Kd was found to be 48.3 µM.

The record behind these values is article PMC7327521.
